Experimental data published in PMC4499147.

Target: RNF168 (UniProt Q8IYW5)
Assay: anti-HA co-IP, FLAG blot
Conditions: reference: wild-type HA-LSD1

Substance | binding against the reference (sites S131) | binding against the reference (sites S137)
LSD1 (from UniProt O60341) S131A | weaker | 
LSD1 (from UniProt O60341) S137A |  | weaker
